# Data reported in IntAct's records for PubMed 29892012.
# B1: E3 ubiquitin-protein ligase LNX (Homo sapiens), Q8TBB1 (parent)
# chain: MNQPESANDPEPLCAVCGQAHSLEENHFYSYPEEVDDDLICHICLQALLDPLDTPCGHTYCTLCLTNFLVEKDFCPMDRKPLVLQHCKKSSILVNKLLNKLLVTCPFREHCTQVLQRCDLEHHFQTSCKGASHYGLTKDRKRRSQDGCPDGCASLTATAPSPEVSAAATISLMTDEPGLDNPAYVSSAEDGQPAISPVDSGRSNRTRARPFERSTIRSRSFKKINRALSVLRRTKSGSAVANHADQGRENSENTTAPEVFPRLYHLIPDGEITSIKINRVDPSESLSIRLVGGSETPLVHIIIQHIYRDGVIARDGRLLPGDIILKVNGMDISNVPHNYAVRLLRQPCQVLWLTVMREQKFRSRNNGQAPDAYRPRDDSFHVILNKSSPEEQLGIKLVRKVDEPGVFIFNVLDGGVAYRHGQLEENDRVLAINGHDLRYGSPESAAHLIQASERRVHLVVSRQVRQRSPDIFQEAGWNSNGSWSPGPGERSNTPKPLHPTITCHEKVVNIQKDPGESLGMTVAGGASHREWDLPIYVISVEPGGVISRDGRIKTGDILLNVDGVELTEVSRSEAVALLKRTSSSIVLKALEVKEYEPQEDCSSPAALDSNHNMAPPSDWSPSWVMWLELPRCLYNCKDIVLRRNTAGSLGFCIVGGYEEYNGNKPFFIKSIVEGTPAYNDGRIRCGDILLAVNGRSTSGMIHACLARLLKELKGRITLTIVSWPGTFL
# partner: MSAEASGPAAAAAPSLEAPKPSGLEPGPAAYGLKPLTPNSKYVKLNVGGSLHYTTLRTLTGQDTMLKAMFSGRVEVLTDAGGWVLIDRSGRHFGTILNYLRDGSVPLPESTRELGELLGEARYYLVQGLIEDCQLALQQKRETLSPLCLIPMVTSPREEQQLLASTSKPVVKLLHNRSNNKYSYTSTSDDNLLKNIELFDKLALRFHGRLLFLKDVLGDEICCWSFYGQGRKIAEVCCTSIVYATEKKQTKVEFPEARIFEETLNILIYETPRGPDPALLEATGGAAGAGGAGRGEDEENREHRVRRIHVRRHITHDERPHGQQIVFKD
# B2: Coiled-coil alpha-helical rod protein 1 (Homo sapiens), Q8TD31 (parent)
# chain: MFPPSGSTGLIPPSHFQARPLSTLPRMAPTWLSDIPLVQPPGHQDVSERRLDTQRPQVTMWERDVSSDRQEPGRRGRSWGLEGSQALSQQAEVIVRQLQELRRLEEEVRLLRETSLQQKMRLEAQAMELEALARAEKAGRAEAEGLRAALAGAEVVRKNLEEGSQRELEEVQRLHQEQLSSLTQAHEEALSSLTSKAEGLEKSLSSLETRRAGEAKELAEAQREAELLRKQLSKTQEDLEAQVTLVENLRKYVGEQVPSEVHSQTWELERQKLLETMQHLQEDRDSLHATAELLQVRVQSLTHILALQEEELTRKVQPSDSLEPEFTRKCQSLLNRWREKVFALMVQLKAQELEHSDSVKQLKGQVASLQEKVTSQSQEQAILQRSLQDKAAEVEVERMGAKGLQLELSRAQEARRRWQQQTASAEEQLRLVVNAVSSSQIWLETTMAKVEGAAAQLPSLNNRLSYAVRKVHTIRGLIARKLALAQLRQESCPLPPPVTDVSLELQQLREERNRLDAELQLSARLIQQEVGRAREQGEAERQQLSKVAQQLEQELQQTQESLASLGLQLEVARQGQQESTEEAASLRQELTQQQELYGQALQEKVAEVETRLREQLSDTERRLNEARREHAKAVVSLRQIQRRAAQEKERSQELRRLQEEARKEEGQRLARRLQELERDKNLMLATLQQEGLLSRYKQQRLLTVLPSLLDKKKSVVSSPRPPECSASAPVAAAVPTRESIKGSLSVLLDDLQDLSEAISKEEAVCQGDNLDRCSSSNPQMSS
# partner: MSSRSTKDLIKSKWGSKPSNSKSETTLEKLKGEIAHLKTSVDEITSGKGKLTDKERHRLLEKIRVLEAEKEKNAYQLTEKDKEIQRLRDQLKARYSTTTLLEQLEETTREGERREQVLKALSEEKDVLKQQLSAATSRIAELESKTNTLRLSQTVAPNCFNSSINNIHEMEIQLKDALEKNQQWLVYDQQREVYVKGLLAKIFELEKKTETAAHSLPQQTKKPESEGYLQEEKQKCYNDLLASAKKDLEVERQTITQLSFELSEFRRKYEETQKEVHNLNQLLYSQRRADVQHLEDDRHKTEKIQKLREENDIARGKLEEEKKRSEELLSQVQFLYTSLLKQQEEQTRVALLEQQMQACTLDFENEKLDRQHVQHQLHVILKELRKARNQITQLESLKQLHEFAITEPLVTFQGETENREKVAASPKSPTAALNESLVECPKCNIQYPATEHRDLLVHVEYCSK
# B3: E3 ubiquitin-protein ligase LNX (Homo sapiens), Q8TBB1 (parent)
# chain: B1 chain
# partner: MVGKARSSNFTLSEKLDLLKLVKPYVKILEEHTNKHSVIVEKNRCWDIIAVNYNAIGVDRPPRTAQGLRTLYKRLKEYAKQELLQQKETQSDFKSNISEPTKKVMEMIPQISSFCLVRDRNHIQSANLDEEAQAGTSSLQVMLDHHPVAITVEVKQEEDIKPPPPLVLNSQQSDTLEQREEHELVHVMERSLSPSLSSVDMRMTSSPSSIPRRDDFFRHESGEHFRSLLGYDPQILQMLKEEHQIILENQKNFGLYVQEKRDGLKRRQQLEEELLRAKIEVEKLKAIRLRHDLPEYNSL
# B4: Centrosomal protein POC5 (Homo sapiens), Q8NA72 (parent)
# chain: MSSDEEKYSLPVVQNDSSRGSSVSSNLQEEYEELLHYAIVTPNIEPCASQSSHPKGELVPDVRISTIHDILHSQGNNSEVRETAIEVGKGCDFHISSHSKTDESSPVLSPRKPSHPVMDFFSSHLLADSSSPATNSSHTDAHEILVSDFLVSDENLQKMENVLDLWSSGLKTNIISELSKWRLNFIDWHRMEMRKEKEKHAAHLKQLCNQINELKELQKTFEISIGRKDEVISSLSHAIGKQKEKIELMRTFFHWRIGHVRARQDVYEGKLADQYYQRTLLKKVWKVWRSVVQKQWKDVVERACQARAEEVCIQISNDYEAKVAMLSGALENAKAEIQRMQHEKEHFEDSMKKAFMRGVCALNLEAMTIFQNRNDAGIDSTNNKKEEYGPGVQGKEHSAHLDPSAPPMPLPVTSPLLPSPPAAVGGASATAVPSAASMTSTRAASASSVHVPVSALGAGSAATAASEEMYVPRVVTSAQQKAGRTITARITGRCDFASKNRISSSLAIMGVSPPMSSVVVEKHHPVTVQTIPQATAAKYPRTIHPESSTSASRSLGTRSAHTQSLTSVHSIKVVD
# partner: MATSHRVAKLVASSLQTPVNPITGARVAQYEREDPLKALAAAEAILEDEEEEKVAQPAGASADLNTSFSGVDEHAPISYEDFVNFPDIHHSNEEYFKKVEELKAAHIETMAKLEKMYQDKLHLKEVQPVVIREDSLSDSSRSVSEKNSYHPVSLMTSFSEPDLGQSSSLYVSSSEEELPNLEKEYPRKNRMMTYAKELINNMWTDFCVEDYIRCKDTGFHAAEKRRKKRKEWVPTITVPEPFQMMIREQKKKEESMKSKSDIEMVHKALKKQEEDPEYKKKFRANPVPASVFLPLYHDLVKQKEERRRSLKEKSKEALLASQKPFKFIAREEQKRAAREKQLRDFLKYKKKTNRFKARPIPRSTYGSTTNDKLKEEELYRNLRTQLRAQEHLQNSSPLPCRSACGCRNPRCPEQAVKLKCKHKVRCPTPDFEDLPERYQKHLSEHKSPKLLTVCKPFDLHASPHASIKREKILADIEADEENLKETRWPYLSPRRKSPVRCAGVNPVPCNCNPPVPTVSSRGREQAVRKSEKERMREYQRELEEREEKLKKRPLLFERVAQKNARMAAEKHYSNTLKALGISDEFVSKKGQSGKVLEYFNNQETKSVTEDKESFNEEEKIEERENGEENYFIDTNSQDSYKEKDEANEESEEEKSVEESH
# Variants of: B1
# Settings: with bacd1_human KCTD13, Q8WZ19
row,Variant,effect of a mutation on the interaction
1,E295K,disrupting interaction strength

# Variants of: B2
# Settings: with cep55_human CEP55, Q53EZ4
row,Variant,effect of a mutation on the interaction
1,W337R,disrupting interaction strength

# Variants of: B3
# Settings: with fsbp_human FSBP
row,Variant,effect of a mutation on the interaction
1,E295K,disrupting interaction strength

# Variants of: B4
# Settings: with FAM161A
row,Variant,effect of a mutation on the interaction
1,M469T,with no effect
